Assay results from article PMC2920127 (Nature structural & molecular biology, 2010).

Target: recombinant full-length His-tagged human PABPC1 (human, UniProt P11940 1-636)
Experiment: pull-down

Chain of recombinant full-length His-tagged human PABPC1 (P11940 whole entry): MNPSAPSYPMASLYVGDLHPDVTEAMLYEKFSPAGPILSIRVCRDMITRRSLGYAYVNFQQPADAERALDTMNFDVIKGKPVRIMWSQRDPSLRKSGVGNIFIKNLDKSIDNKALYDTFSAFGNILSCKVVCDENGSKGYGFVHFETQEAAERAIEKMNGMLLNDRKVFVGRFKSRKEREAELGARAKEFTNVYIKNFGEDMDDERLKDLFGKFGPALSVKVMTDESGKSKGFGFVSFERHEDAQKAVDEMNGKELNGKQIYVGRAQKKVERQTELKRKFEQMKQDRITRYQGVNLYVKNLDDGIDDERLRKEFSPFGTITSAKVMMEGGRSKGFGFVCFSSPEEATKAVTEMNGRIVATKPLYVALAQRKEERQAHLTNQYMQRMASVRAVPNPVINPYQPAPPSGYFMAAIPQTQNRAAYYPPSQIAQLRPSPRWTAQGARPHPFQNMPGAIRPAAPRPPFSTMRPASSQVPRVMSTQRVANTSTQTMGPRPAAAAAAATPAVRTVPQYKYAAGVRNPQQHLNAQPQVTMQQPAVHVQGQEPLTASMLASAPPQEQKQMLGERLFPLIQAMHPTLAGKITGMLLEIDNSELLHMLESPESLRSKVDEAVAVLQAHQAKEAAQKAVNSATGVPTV

| Binder | binding result |
| --- | --- |
| GST-fused TNRC6C fragment 1364-1601 (domain or fragment, human, UniProt Q9HCJ0-1 1364-1601, looked up) PHSWSRAKSDSDKISNGSSINWPPEFHPGVPWKGLQNIDPENDPDVTPGSVPTGPTINTTIQDVNRYLLKSGGKLSDIKSTWSSGPTSHTQASLSHELWKVPRNSTAPTRPPPGLTNPKPSSTWGASPLGWTSSYSSGSAWSTDTSGRTSSWLVLRNLTPQIDGSTLRTLCLQHGPLITFHLNLTQGNAVVRYSSKEEAAKAQKSLHMCVLGNTTILAEFAGEEEVNRFLAQGQALPP | binds |
| GST-fused TNRC6C fragment 1242-1601 (domain or fragment, human, UniProt Q9HCJ0-1 1242-1601, looked up) PQTPGLPDLQTKEQQSSPNTFAPYPLAGLNPNMNVNSMDMTGGLSVKDPSQSQSRLPQWTHPNSMDNLPSAASPLEQNPSKHGAIPGGLSIGPPGKSSIDDSYGRYDLIQNSESPASPPVAVPHSWSRAKSDSDKISNGSSINWPPEFHPGVPWKGLQNIDPENDPDVTPGSVPTGPTINTTIQDVNRYLLKSGGKLSDIKSTWSSGPTSHTQASLSHELWKVPRNSTAPTRPPPGLTNPKPSSTWGASPLGWTSSYSSGSAWSTDTSGRTSSWLVLRNLTPQIDGSTLRTLCLQHGPLITFHLNLTQGNAVVRYSSKEEAAKAQKSLHMCVLGNTTILAEFAGEEEVNRFLAQGQALPP | binds |
